The results in this text go back to PMC11960969, “Mdga2 deficiency leads to an aberrant activation of BDNF/TrkB signaling that underlies autism-relevant synaptic and behavioral changes in mice” (PLOS Biology, 2025).

This test has as its system hippocampal proteins. The experiment in a line: DIA quantification proteomics, hippocampus of Mdga2+/- vs WT mice. Details: species or system mouse. The note with it: S3 Table, downregulated DEPs; for log2FC: Mdga2+/- vs WT mouse hippocampus (HET-HIP-VS-WT-HIP), SE, pvalue and adj_pvalue in own columns c3-c5; for Class: regulation class of the protein, HET-HIP-VS-WT-HIP. The procedure: The hippocampus of 1.5–2-month-old Mdga2^ +/− male mice and their WT littermate controls was collected and sent to the BGI company for DIA quantification proteomics and data analysis. Briefly, samples were lysed and sonicated. After centrifugation, the supernatant was taken for quantification. Equal amounts of proteins (100 μg) per sample were subjected to trypsin enzymatic hydrolysis. After dryness, 10 μg enzymatic peptides per sample were separated by high-pH fractionation into a total of 10 fractions using high-performance liquid chromatography (HPLC) and freeze-dried. Data-dependent acquisition (DDA) fractions and DIA samples were analyzed by nano-LC–MS/MS. DDA data was identified by Andromeda search engine within MaxQuant. Identified results were used by Spectronaut^TM for spectral library construction. For DIA data, Spectronaut^TM used the constructed spectral library information to complete deconvolution and extraction, and used the mProphet algorithm to complete analytical quality control for obtaining reliable quantitative results. The mass spectrometry proteomics data have been deposited to the ProteomeXchange Consortium via the PRIDE [62] partner repository with the dataset identifier PXD050810. DEPs between comparison groups were identified based on the quantitative results, using the fold change >1.1 and p-value <0.05 as the criteria. After retrieval from the UniProtKB database, identified DEPs were processed for GO analysis by using DAVID (https://david.ncifcrf.gov/home.jsp) and Metascape database (https://metascape.org/gp/index.html).

B1: sp¦Q3UHB1¦NT5D3_MOUSE (protein, UniProt Q3UHB1 1-546, looked up)
5'-nucleotidase …: MATVAAAARGAGARAAAGLRSCGGAVARERPRSGCARRLCSAPAAPAAVDMKSYLWARYHEAKRSTDELVPSIMNNLLNPDAIFSNNEMSLSDIEIYGFDYDYTLVFYSKHLHTLIFNAARDLLINEHRYPVEIRKYEYDPSFAIRGLHYDVQRAVLMKIDAFHYIQMGTVYRGLSVVPDEEVIDMYEGSHVPLEQMSDFYGKSSHGNTMKQFMDIFSLPEMTLLSCVNEHFLKNNIDYEPVHLYKDVKDSIRDVHIKGIMYRAIEADIEKYICYADQTRAVLAKLAAHGKKMFLITNSPSSFVDKGMRYIVGKDWRDLFDVVIVQAEKPNFFNDKRRPFRKVNEKGVLLWDKIHKLQKGQIYKQGNLYEFLKLTGWRGSKVLYFGDHIYSDLADLTLKHGWRTGAIIPELRSELRIMNTEQYIQTMTWLQTLTGLLEQMQVHRDAESQLVLQEWKKERKEMREMTKSFFNAQFGSLFRTDQNPTYFLRRLSRFADIYMASLSCLLNYDVHHTFYPRRTPLQHELPAWSDSPSAFKAPLLQEAQAK
In the case of B1, the log2FC was -1.2606 and the Class entry was “Down”.

B2: sp¦Q6NWV3¦IF122_MOUSE (protein, UniProt Q6NWV3 1-1182, looked up)
Intraflagellar transport …: MRAVLTWRDKAEQCIYDLAFKPDGTQLILAAGNRLLVYDTSDGTLLQPLKGHKDTVYCVAYAKDGKRFASGSADKSIIIWTSKLEGILKYTHNDSIQCVSYNPVTHQLASCSSSDFGLWSPEQKSVSKHKSSSKITCCSWTNDGQYLALGMANGIISIRNKNGEEKVKIERPGGSLSPIWSICWNPSREEHNDILAVADWGQKLSFYQLSGKQIGKDRPLNFDPCCISYFTKGEYILVGGSDKQVSLFTKDGVRLGTVGEQNSWVWTCRVKPDSNYVVVGCQDGTISFYQLIFSTVHGLYKDRYAYRDSMTDVIVQHLITEQKVRIKCRELVKKIAIYKNRLAIQLPEKILIYELYSEDSTDMHYRVKEKIVKKFECNLLVVCADHIILCQEKRLQCLSFSGVKEREWQMESLIRYIKVIGGPAGREGLLVGLKNGQILKIFVDNLFAIVLLKQATAVRCLDMSASRNKLAVVDENDTCLVYDIHTKELLFQEPNANSVAWNTQCEDMLCFSGGGYLNIKASTFPVHQQKLQGFVVGYNGSKIFCLHVFSMSAVEVPQSAPMYQYLDRKMFKEAYQIACLGVTDADWRELAMEALEGLEFETARKAFTRVQDLRYLELISSIEERKKRGETNNDLFLADVFSYQGKFHEAAKLYKRSGHENLALDMYTDLCMFEYAKDFLGSGDPKETKMLITKQADWARNINEPKAAVEMYISAGEHAKAIEISGSHGWVDMLIDIARKLDKAEREPLLMCACYFKKLDSPGYAAETYLKIGDLKSLVQLYVDTKRWDEAFALGEKHPEFKDDVYVPYAQWLAENDRFEEAQKAFHKAGRQGEAVRVLEQLTHNAVVESRFNDAAYYYWMLSMQCLDMAQDPAQKDAMLDKFHHFQHLAELYHGYQTIHRYTEEPFSFDLPETLFNISKFLLHSLTKATPLGISKVNTLFTLAKQSKALGAYKLARHAYDKLRGLQIPARIQKSIELGTLTIRSKPFHDSEELVPLCYRCSTNNPLLNNLGNVCINCRQPFIFSASSYEVLHLVEFYLEEGITDEEAVALIDLEAPRHKREGKWRETSSNNSQTLKLDETMDSIGEDDPFTAKLSFEQGSSEFVPVVVNRSVLRSMSRRDVLIKRWPPPLQWQYFRSLLPDASITMCPSCFQMFHSEDYELLVLQHACCPYCRRRIDDTGP
On to B2, for which the log2FC was -1.266 and the Class result is listed as “Down”.

B3: sp¦P0C7L0¦WIPF3_MOUSE (protein, UniProt P0C7L0 1-485, looked up)
WAS/WASL-interacting protein …: MPVPPPPPPPPPPPPPPPPPLGAPPPPPLGAPPPPPPPGPPVSTDTPSLRKPDLKGRSALLADIQQGTRLRKVTQINDRSAPQIEGSKGTSKEGGAAGSNARGGNTPPALGDLFAGGFPVLRPAGQRDVSGGKSGQGPGSRAPSPRLPIKAISGPLPAPASPRLGNASETHSSARPVPPRPSVPAPPPPTPPPPPPPPLPPASPIKAQLVSPPAPPTKVNPSVVPPPLPCAPPLPPPPPTPPPLPPASALSDKAVRPQLAPLHLPPIPPPLPLLPPCGYPGLHSEPNSPAQEVREPPAPPPPPPPPPPPPLPTYASCSSRTAVAPPPLPGANNSGSETPPPLPPKSPSFQTQKALPTPPGAPGPQAILQKKRRGPGTSGGKLNPPPAPPARSPTTELSSKSQQPGGQLRNGGQHAIDDFESKFTFHSMEDFPPPDEYKPCQKIYPSKVPRSRTPGSWLQAEAAGQSSDDIKSRNSQLSLKALPVR
B3: the log2FC is given as -1.266 and the Class result is on record as “Down”.
